Test results published in US20200199241A1 (Chugai, published 2020).
Numbering of substitutions follows the chain as printed. In names and notes the source's numbering stands.

T1: human FcγRIIa(H) (human, UniProt P12318 36-217)
T1 construct: also called FcgRIIaH; hFcgRIIa(H)
T1 sequence: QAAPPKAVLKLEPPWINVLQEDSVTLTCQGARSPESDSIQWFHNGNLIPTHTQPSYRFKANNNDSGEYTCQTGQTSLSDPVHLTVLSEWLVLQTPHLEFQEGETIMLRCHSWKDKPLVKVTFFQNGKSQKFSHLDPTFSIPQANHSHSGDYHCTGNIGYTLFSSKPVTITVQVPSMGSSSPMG

T2: human FcγRIIa(R) (human, UniProt P12318 36-217)
T2 construct: also called FcgRIIaR; hFcgRIIa(R)
T2 chain: T1 sequence with H133R

T3: human FcγRIIb (human, UniProt P31994 43-217, limits assumed)
T3 construct: also called FcgRIIb; hFcgRIIb
T3 sequence: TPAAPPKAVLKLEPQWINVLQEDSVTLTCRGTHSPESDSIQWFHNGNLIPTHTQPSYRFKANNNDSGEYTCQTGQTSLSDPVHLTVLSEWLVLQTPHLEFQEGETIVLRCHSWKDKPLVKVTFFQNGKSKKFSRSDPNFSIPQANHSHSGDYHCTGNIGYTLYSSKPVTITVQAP

B1: GpH7-B3 P271R/GpL16-k0 (antibody, human IgG1)
heavy: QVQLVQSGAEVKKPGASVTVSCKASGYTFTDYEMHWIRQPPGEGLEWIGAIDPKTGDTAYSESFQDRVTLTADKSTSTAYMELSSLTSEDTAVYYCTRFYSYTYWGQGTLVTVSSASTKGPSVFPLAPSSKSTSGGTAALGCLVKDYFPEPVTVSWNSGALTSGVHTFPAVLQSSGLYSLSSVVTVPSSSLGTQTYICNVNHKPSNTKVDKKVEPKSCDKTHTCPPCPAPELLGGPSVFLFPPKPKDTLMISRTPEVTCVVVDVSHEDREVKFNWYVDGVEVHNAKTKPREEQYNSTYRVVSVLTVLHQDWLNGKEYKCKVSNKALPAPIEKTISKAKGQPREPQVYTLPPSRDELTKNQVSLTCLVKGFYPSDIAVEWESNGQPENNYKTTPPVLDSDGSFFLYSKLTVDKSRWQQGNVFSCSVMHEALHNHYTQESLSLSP
light: DIVMTQSPLSLPVTPGEPASISCQASESLVHSNRNTYLHWYLQKPGQSPQLLIYKVSNRFSGVPDRFSGSGSGTDFTLKISRVEAEDVGVYYCSQNTHVPPTFGQGTKVEIE
notes: B3 variant; copies: 2 + 2
B2: GpH7-B3 P271W/GpL16-k0 (antibody, human IgG1)
heavy: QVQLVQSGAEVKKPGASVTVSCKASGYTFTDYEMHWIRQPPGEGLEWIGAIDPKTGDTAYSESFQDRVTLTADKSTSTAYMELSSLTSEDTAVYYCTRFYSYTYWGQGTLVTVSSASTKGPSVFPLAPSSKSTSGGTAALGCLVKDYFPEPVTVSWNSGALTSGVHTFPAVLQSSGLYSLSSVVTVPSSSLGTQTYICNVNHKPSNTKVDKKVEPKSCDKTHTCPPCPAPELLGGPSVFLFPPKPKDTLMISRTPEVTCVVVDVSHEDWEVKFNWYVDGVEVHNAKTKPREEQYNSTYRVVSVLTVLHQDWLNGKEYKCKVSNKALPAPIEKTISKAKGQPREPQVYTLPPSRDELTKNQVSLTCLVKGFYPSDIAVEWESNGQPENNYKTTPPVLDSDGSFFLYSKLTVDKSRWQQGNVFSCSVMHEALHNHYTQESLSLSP
light: B1 light
notes: B3 variant; copies: 2 + 2
B3: GpH7-B3 P329L/GpL16-k0 (antibody, human IgG1)
heavy: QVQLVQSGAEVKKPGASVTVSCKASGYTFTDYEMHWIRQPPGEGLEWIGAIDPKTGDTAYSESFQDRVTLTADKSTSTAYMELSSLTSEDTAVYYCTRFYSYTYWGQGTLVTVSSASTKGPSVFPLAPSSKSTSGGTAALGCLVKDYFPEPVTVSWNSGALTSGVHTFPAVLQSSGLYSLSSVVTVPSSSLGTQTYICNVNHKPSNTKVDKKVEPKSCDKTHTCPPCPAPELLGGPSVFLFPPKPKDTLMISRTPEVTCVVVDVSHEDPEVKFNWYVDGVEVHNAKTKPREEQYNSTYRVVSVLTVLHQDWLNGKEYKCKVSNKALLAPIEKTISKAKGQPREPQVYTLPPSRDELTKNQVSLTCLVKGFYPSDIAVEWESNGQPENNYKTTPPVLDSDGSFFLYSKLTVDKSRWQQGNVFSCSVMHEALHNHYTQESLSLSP
light: B1 light
notes: B3 variant; copies: 2 + 2
B4: GpH7-B3 P329N/GpL16-k0 (antibody, human IgG1)
heavy: not shown
light: B1 light
notes: B3 variant; copies: 2 + 2
B5: GpH7-B3 P329M/GpL16-k0 (antibody, human IgG1)
heavy: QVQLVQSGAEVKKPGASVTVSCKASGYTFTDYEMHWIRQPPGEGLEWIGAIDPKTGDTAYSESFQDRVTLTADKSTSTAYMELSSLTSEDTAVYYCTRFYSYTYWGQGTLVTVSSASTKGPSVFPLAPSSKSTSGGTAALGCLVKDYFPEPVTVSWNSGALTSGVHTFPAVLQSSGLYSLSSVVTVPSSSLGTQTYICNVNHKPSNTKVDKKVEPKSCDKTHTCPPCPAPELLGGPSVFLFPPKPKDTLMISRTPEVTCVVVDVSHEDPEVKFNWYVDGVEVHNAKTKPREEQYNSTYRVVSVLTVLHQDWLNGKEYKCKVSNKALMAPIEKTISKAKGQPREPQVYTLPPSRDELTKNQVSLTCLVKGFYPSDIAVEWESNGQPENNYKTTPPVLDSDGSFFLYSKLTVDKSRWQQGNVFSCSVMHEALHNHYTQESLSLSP
light: B1 light
notes: B3 variant; copies: 2 + 2
B6: GpH7-B3 P329I/GpL16-k0 (antibody, human IgG1)
heavy: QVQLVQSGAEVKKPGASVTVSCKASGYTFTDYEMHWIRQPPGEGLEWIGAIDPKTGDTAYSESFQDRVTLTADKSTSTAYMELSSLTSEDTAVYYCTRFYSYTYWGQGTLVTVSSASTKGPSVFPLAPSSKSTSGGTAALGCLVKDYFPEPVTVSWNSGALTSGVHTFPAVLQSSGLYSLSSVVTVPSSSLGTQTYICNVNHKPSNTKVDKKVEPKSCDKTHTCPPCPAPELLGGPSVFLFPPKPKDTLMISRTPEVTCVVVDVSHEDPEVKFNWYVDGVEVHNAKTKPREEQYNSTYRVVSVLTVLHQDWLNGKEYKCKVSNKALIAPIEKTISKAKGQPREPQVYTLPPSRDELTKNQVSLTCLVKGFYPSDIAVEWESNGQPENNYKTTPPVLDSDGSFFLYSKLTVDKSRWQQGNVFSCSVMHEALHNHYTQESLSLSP
light: B1 light
notes: B3 variant; copies: 2 + 2
B7: GpH7-B3 P329D/GpL16-k0 (antibody, human IgG1)
heavy: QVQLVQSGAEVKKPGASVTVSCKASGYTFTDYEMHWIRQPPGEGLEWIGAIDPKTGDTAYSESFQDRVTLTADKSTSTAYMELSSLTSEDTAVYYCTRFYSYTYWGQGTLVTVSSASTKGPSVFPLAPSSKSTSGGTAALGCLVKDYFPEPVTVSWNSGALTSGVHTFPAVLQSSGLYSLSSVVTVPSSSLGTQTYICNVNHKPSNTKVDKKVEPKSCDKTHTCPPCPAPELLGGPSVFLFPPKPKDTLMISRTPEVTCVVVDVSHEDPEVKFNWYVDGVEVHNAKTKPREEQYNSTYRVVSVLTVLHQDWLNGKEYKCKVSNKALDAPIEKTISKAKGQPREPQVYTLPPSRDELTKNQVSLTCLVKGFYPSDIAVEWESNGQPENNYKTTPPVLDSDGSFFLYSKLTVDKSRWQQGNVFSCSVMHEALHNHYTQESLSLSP
light: B1 light
notes: B3 variant; copies: 2 + 2
B8: GpH7-B3 P329F/GpL16-k0 (antibody, human IgG1)
heavy: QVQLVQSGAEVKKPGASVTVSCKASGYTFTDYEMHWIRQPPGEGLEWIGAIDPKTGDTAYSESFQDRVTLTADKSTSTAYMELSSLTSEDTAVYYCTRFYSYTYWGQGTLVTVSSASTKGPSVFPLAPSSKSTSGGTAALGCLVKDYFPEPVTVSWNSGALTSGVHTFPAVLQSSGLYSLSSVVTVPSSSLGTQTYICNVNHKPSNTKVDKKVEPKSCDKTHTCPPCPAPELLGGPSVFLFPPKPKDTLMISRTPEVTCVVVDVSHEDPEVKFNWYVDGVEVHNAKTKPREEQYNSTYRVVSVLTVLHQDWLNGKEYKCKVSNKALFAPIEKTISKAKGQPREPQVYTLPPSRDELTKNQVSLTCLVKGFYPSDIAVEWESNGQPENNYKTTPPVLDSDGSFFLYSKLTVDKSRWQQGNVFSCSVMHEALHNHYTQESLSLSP
light: B1 light
notes: B3 variant; copies: 2 + 2
B9: GpH7-B3 P329H/GpL16-k0 (antibody, human IgG1)
heavy: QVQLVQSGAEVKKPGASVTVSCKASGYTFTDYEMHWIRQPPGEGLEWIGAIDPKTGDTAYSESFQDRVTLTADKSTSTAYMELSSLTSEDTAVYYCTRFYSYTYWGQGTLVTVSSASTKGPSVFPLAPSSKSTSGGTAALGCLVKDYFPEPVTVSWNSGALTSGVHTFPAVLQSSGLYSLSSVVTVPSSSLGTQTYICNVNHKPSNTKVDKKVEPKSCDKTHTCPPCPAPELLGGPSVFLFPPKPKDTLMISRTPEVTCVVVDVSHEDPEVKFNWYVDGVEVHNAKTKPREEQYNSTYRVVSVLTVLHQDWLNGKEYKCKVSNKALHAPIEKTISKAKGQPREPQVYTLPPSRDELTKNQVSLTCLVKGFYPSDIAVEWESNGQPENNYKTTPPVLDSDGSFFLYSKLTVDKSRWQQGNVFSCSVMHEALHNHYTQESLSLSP
light: B1 light
notes: B3 variant; copies: 2 + 2
B10: GpH7-B3 P329G/GpL16-k0 (antibody, human IgG1)
heavy: not shown
light: B1 light
notes: B3 variant; copies: 2 + 2
B11: GpH7-B3 P329E/GpL16-k0 (antibody, human IgG1)
heavy: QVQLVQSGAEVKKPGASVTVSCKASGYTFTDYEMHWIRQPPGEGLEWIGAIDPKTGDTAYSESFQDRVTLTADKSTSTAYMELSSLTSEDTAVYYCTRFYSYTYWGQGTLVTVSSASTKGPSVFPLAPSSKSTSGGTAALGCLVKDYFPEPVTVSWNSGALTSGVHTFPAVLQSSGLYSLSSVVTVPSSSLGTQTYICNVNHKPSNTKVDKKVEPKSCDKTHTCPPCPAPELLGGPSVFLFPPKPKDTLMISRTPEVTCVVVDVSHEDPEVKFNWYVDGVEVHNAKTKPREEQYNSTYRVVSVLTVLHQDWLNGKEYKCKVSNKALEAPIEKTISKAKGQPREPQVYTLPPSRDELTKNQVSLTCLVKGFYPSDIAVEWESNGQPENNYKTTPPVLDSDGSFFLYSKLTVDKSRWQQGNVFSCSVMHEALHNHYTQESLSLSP
light: B1 light
notes: B3 variant; copies: 2 + 2
B12: GpH7-B3 P271S/GpL16-k0 (antibody, human IgG1)
heavy: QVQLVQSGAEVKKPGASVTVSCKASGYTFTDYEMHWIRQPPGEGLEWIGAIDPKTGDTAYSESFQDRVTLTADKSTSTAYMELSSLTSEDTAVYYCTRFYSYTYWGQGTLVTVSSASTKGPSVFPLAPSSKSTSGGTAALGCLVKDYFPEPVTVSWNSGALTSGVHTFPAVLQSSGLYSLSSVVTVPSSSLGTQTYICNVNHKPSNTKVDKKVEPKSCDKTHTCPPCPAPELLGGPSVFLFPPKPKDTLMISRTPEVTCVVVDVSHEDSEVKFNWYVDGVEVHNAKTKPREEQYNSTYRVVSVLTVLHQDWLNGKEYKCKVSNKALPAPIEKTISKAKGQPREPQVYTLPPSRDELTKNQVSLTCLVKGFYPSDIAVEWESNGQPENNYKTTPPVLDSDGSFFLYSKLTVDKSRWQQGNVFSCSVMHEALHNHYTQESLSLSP
light: B1 light
notes: B3 variant; copies: 2 + 2
B13: GpH7-B3 P271T/GpL16-k0 (antibody, human IgG1)
heavy: not shown
light: B1 light
notes: B3 variant; copies: 2 + 2
B14: GpH7-B3 P271Y/GpL16-k0 (antibody, human IgG1)
heavy: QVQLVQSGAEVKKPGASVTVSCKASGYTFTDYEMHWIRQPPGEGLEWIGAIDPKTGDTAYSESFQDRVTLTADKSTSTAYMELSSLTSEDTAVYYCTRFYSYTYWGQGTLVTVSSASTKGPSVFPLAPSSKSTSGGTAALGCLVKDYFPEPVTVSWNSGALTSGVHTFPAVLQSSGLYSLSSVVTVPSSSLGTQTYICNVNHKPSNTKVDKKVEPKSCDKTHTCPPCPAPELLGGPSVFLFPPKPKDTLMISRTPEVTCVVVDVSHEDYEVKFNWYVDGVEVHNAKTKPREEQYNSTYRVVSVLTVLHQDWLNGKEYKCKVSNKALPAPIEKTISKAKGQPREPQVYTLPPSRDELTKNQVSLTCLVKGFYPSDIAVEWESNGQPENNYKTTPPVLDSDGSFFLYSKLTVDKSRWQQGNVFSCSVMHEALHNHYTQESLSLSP
light: B1 light
notes: B3 variant; copies: 2 + 2

Target: T1, human FcγRIIa(H)
Experiment: SPR, captured antibody;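 note: antibody captured on a sensor chip, Fcγ receptor flowed over at 25 °C, receptor binding normalized to the captured antibody amount and expressed relative to the reference antibody ×100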

Row | relative binding activity | Binder
1 | 99 % of GpH7-B3/GpL16-k0 | B1
2 | 75 % of GpH7-B3/GpL16-k0 | B2
3 | 2 % of GpH7-B3/GpL16-k0 | B3
4 | 5 % of GpH7-B3/GpL16-k0 | B4
5 | 2 % of GpH7-B3/GpL16-k0 | B5
6 | 21 % of GpH7-B3/GpL16-k0 | B6
7 | -1 % of GpH7-B3/GpL16-k0 | B7
8 | 1 % of GpH7-B3/GpL16-k0 | B8
9 | 0 % of GpH7-B3/GpL16-k0 | B9
10 | 1 % of GpH7-B3/GpL16-k0 | B10
11 | 0 % of GpH7-B3/GpL16-k0 | B11
12 | 67 % of GpH7-B3/GpL16-k0 | B12
13 | 42 % of GpH7-B3/GpL16-k0 | B13
14 | 48 % of GpH7-B3/GpL16-k0 | B14

Target: T4, human FcγRIa (human, UniProt P12314 16-292, limits assumed)
T4 construct: also called FcgRIa; hFcgRIa
Experiment: SPR, captured antibody;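 note: antibody captured on a sensor chip, Fcγ receptor flowed over at 25 °C, receptor binding normalized to the captured antibody amount and expressed relative to the reference antibody ×100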

Row | relative binding activity | Binder
15 | 100 % of GpH7-B3/GpL16-k0 | B1
16 | 100 % of GpH7-B3/GpL16-k0 | B2
17 | 68 % of GpH7-B3/GpL16-k0 | B3
18 | 45 % of GpH7-B3/GpL16-k0 | B4
19 | 69 % of GpH7-B3/GpL16-k0 | B5
20 | 89 % of GpH7-B3/GpL16-k0 | B6
21 | 23 % of GpH7-B3/GpL16-k0 | B7
22 | 79 % of GpH7-B3/GpL16-k0 | B8
23 | 50 % of GpH7-B3/GpL16-k0 | B9
24 | 92 % of GpH7-B3/GpL16-k0 | B10
25 | 33 % of GpH7-B3/GpL16-k0 | B11
26 | 99 % of GpH7-B3/GpL16-k0 | B12
27 | 98 % of GpH7-B3/GpL16-k0 | B13
28 | 98 % of GpH7-B3/GpL16-k0 | B14

Target: T2, human FcγRIIa(R)
Experiment: SPR, captured antibody;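 note: antibody captured on a sensor chip, Fcγ receptor flowed over at 25 °C, receptor binding normalized to the captured antibody amount and expressed relative to the reference antibody ×100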

Row | relative binding activity | Binder
29 | 89 % of GpH7-B3/GpL16-k0 | B1
30 | 46 % of GpH7-B3/GpL16-k0 | B2
31 | 2 % of GpH7-B3/GpL16-k0 | B3
32 | 4 % of GpH7-B3/GpL16-k0 | B4
33 | 2 % of GpH7-B3/GpL16-k0 | B5
34 | 22 % of GpH7-B3/GpL16-k0 | B6
35 | -1 % of GpH7-B3/GpL16-k0 | B7
36 | 1 % of GpH7-B3/GpL16-k0 | B8
37 | -1 % of GpH7-B3/GpL16-k0 | B9
38 | 1 % of GpH7-B3/GpL16-k0 | B10
39 | -1 % of GpH7-B3/GpL16-k0 | B11
40 | 83 % of GpH7-B3/GpL16-k0 | B12
41 | 73 % of GpH7-B3/GpL16-k0 | B13
42 | 38 % of GpH7-B3/GpL16-k0 | B14

Target: T3, human FcγRIIb
Experiment: SPR, captured antibody;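 note: antibody captured on a sensor chip, Fcγ receptor flowed over at 25 °C, receptor binding normalized to the captured antibody amount and expressed relative to the reference antibody ×100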

Row | relative binding activity | Binder
43 | 87 % of GpH7-B3/GpL16-k0 | B1
44 | 33 % of GpH7-B3/GpL16-k0 | B2
45 | 1 % of GpH7-B3/GpL16-k0 | B3
46 | 0 % of GpH7-B3/GpL16-k0 | B4
47 | 0 % of GpH7-B3/GpL16-k0 | B5
48 | 13 % of GpH7-B3/GpL16-k0 | B6
49 | -2 % of GpH7-B3/GpL16-k0 | B7
50 | 0 % of GpH7-B3/GpL16-k0 | B8
51 | -3 % of GpH7-B3/GpL16-k0 | B9
52 | 0 % of GpH7-B3/GpL16-k0 | B10
53 | -2 % of GpH7-B3/GpL16-k0 | B11
54 | 82 % of GpH7-B3/GpL16-k0 | B12
55 | 78 % of GpH7-B3/GpL16-k0 | B13
56 | 28 % of GpH7-B3/GpL16-k0 | B14
